Assay results as given in paper PMC4571306 (Molecular Biology of the Cell, 2015).

T1: GST-Kxd1 (S. cerevisiae, UniProt P53158 1-218)
T1 sequence (looked up): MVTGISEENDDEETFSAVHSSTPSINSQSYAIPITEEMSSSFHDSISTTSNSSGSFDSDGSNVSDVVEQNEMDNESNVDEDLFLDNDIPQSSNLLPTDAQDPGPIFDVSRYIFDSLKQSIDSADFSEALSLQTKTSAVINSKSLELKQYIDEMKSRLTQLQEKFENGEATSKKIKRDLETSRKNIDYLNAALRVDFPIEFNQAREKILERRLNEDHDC

B1: HS-Bli1 (natural protein, S. cerevisiae, UniProt P35727 1-113, looked up)
chain: MGEQNKLYYDVEKLVNSLQESFDLDCAQSVSLFTSKSRSNEAWLEELENKFKLKDDVELDDVENLRAEIDMKLNMLEDKVSYYERLYKELEEFQNEIKIKTVVNNRRQSRTPK
B2: GST-Bli1 (natural protein, S. cerevisiae, UniProt P35727 1-113, looked up)
chain: B1 chain
B3: Vab2-GST (natural protein)
chain: MVADLTKGILKWKSRIEFDAVGSSSYYEELKGLPPLASHKKLTQAAIFNSTKYELLQVKKDILSIYEVVSRDIDEERNQMQQIELQLKKSLKKVEHSYKNVLKQRASTNCINGNDRLLANAEKKIGSLNEELACVNDIVSDIVNNLTALNANLPKKAQLLKDDSINVAHYPLLFDFLHKSCPKSIIATSEASIHENASPSPLLEHDELPAESINSFYGENELQSDSLAPLQTHDDNISSCKKILPPKFNTTSGPSIETNFENISADGLTYTKCSLKNSISLT
B4: HS-Cnl1 (natural protein, S. cerevisiae, UniProt Q06333 1-122, looked up)
chain: MQDNSSHSRESASAGDDPLGIDKLTVDYDYLLYKMRDYVQSIQLDTTELCKKQNEVMVNGIIENTIDKNIAKFKELLEKCDTLENHYEMLNQLAIITDTFKERIAEAVNNYNSLKKGASKSK

Key:
Assay in all cases: pull-down
Vab2-GST = target: B3
GST-Snn1 = GST-Snn1 (S. cerevisiae, UniProt P48232 1-102)
HS-Cnl1 = target: B4
HS-Snn1 = HS-Snn1 (S. cerevisiae, UniProt P48232 1-102)
GST-Kxd1 = target: T1, GST-Kxd1

Binder: B1
binding result (Vab2-GST): binds
binding result (GST-Snn1): binds

Binder: B2
binding result (HS-Cnl1): binds

Binder: B3
binding result (HS-Snn1): binds

Binder: B4
binding result (GST-Kxd1): binds
